From IntAct's records for PubMed 19407142

B1: Protein phosphatase 2C 77 (Arabidopsis thaliana (Mouse-ear cress)), O04719 (parent)
chain: MDEVSPAVAVPFRPFTDPHAGLRGYCNGESRVTLPESSCSGDGAMKDSSFEINTRQDSLTSSSSAMAGVDISAGDEINGSDEFDPRSMNQSEKKVLSRTESRSLFEFKCVPLYGVTSICGRRPEMEDSVSTIPRFLQVSSSSLLDGRVTNGFNPHLSAHFFGVYDGHGGSQVANYCRERMHLALTEEIVKEKPEFCDGDTWQEKWKKALFNSFMRVDSEIETVAHAPETVGSTSVVAVVFPTHIFVANCGDSRAVLCRGKTPLALSVDHKPDRDDEAARIEAAGGKVIRWNGARVFGVLAMSRSIGDRYLKPSVIPDPEVTSVRRVKEDDCLILASDGLWDVMTNEEVCDLARKRILLWHKKNAMAGEALLPAEKRGEGKDPAAMSAAEYLSKMALQKGSKDNISVVVVDLKGIRKFKSKSLN
B2: Abscisic acid receptor PYR1 (Arabidopsis thaliana (Mouse-ear cress)), O49686 (parent)
chain: MPSELTPEERSELKNSIAEFHTYQLDPGSCSSLHAQRIHAPPELVWSIVRRFDKPQTYKHFIKSCSVEQNFEMRVGCTRDVIVISGLPANTSTERLDILDDERRVTGFSIIGGEHRLTNYKSVTTVHRFEKENRIWTVVLESYVVDMPEGNSEDDTRMFADTVVKLNLQKLATVAEAMARNSGDGSGSQVT
B3: Protein phosphatase 2C 56 (Arabidopsis thaliana (Mouse-ear cress)), P49597 (parent)
chain: MEEVSPAIAGPFRPFSETQMDFTGIRLGKGYCNNQYSNQDSENGDLMVSLPETSSCSVSGSHGSESRKVLISRINSPNLNMKESAAADIVVVDISAGDEINGSDITSEKKMISRTESRSLFEFKSVPLYGFTSICGRRPEMEDAVSTIPRFLQSSSGSMLDGRFDPQSAAHFFGVYDGHGGSQVANYCRERMHLALAEEIAKEKPMLCDGDTWLEKWKKALFNSFLRVDSEIESVAPETVGSTSVVAVVFPSHIFVANCGDSRAVLCRGKTALPLSVDHKPDREDEAARIEAAGGKVIQWNGARVFGVLAMSRSIGDRYLKPSIIPDPEVTAVKRVKEDDCLILASDGVWDVMTDEEACEMARKRILLWHKKNAVAGDASLLADERRKEGKDPAAMSAAEYLSKLAIQRGSKDNISVVVVDLKPRRKLKSKPLN

Variants of: B1
Conditions: with pyr1_arath PYR1, O49686

| effect of a mutation on the interaction | Variant |
| --- | --- |
| disrupting interaction | MDEVSPAVAVPFRPFTDPHAGLRGYCNGESRVTLPESSCSGDGAMKDSSFEINTRQDSLTSSSSAMAGVDISAGDEINGSDEFDPRSMNQSEKKVLSRTESRSLFEFKCVPLYGVTSICGRRPEMEDSVSTIPRFLQVSSSSLLDGRVTNGFNPHLSAHFFGVYDGHDGSQVANYCRERMHLALTEEIVKEKPEFCDGDTWQEKWKKALFNSFMRVDSEIETVAHAPETVGSTSVVAVVFPTHIFVANCGDSRAVLCRGKTPLALSVDHKPDRDDEAARIEAAGGKVIRWNGARVFGVLAMSRSIGDRYLKPSVIPDPEVTSVRRVKEDDCLILASDGLWDVMTNEEVCDLARKRILLWHKKNAMAGEALLPAEKRGEGKDPAAMSAAEYLSKMALQKGSKDNISVVVVDLKGIRKFKSKSLN [G168D] |

Variants of: B2
Conditions: with HAB1, Q9CAJ0
Sequence of HAB1, Q9CAJ0 (Q9CAJ0 whole entry): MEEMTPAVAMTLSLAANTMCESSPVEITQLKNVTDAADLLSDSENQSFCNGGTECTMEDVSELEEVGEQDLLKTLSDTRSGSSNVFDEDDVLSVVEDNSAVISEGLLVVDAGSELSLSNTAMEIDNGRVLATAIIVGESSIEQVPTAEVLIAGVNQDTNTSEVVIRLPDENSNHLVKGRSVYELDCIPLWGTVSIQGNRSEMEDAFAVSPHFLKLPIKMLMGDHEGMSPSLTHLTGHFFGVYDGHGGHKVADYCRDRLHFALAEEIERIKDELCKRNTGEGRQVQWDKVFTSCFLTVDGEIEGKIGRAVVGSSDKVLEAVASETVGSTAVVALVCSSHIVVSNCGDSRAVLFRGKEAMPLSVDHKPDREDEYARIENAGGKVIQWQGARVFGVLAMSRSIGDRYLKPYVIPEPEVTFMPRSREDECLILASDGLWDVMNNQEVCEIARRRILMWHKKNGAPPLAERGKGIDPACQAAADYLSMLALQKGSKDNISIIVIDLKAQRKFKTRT

| effect of a mutation on the interaction | Variant |
| --- | --- |
| disrupting interaction | MPSELTPEERSELKNSIAEFHTYQLDPGSCSSLHAQRIHAPPELVWSIVRRFDKPQTYKHFIKSCSVEQNFEMRVGCTRDVIVISGLSANTSTERLDILDDERRVTGFSIIGGEHRLTNYKSVTTVHRFEKENRIWTVVLESYVVDMPEGNSEDDTRMFADTVVKLNLQKLATVAEAMARNSGDGSGSQVT [P88S] |
| disrupting interaction | MPSELTPEERSELKNSIAEFHTYQLDPGSCSSLHAQRIHAPPELVWSIVRRFDKPQTYKHFIKSCSVEQNFEMRVGCTRDVIVISGLPANTSTERLDILDDERRVTGFSIIGGEHRLTNYKSVTTVHRFEKENRIWTVVLESYVVDMPEGNLEDDTRMFADTVVKLNLQKLATVAEAMARNSGDGSGSQVT [S152L] |

Variants of: B3
Conditions: with pyr1_arath PYR1, O49686

| effect of a mutation on the interaction | Variant |
| --- | --- |
| decreasing interaction | MEEVSPAIAGPFRPFSETQMDFTGIRLGKGYCNNQYSNQDSENGDLMVSLPETSSCSVSGSHGSESRKVLISRINSPNLNMKESAAADIVVVDISAGDEINGSDITSEKKMISRTESRSLFEFKSVPLYGFTSICGRRPEMEDAVSTIPRFLQSSSGSMLDGRFDPQSAAHFFGVYDGHDGSQVANYCRERMHLALAEEIAKEKPMLCDGDTWLEKWKKALFNSFLRVDSEIESVAPETVGSTSVVAVVFPSHIFVANCGDSRAVLCRGKTALPLSVDHKPDREDEAARIEAAGGKVIQWNGARVFGVLAMSRSIGDRYLKPSIIPDPEVTAVKRVKEDDCLILASDGVWDVMTDEEACEMARKRILLWHKKNAVAGDASLLADERRKEGKDPAAMSAAEYLSKLAIQRGSKDNISVVVVDLKPRRKLKSKPLN [G180D] |
